{
  "source": "patent US20090274620A1",
  "about": "(WILEX, published 2009)",
  "binders": {"B1": {"name": "monoclonal antibody G250 (murine, from hybridoma DSM ACC 2526) (antibody, IgG1, V domains shown)", "VH": "DVKLVESGGGLVKLGGSLKLSCAASGFTFSNYYMSWVRQTPEKRLELVAAINSDGGITYYLDTVKGRFTISRDNAKNTLYLQMSSLKSEDTALFYCARHRSGYFSMDYWGQGTSVTVSS", "VL": "DIVMTQSQRFMSTTVGDRVSITCKASQNVVSAVAWYQQKPGQSPKLLIYSASNRYTGVPDRFTGSGSGTDFTLTISNMQSEDLADFFCQQYSNYPWTFGGGTKLEIK", "notes": "also called MAbG250; MabG250"}},
  "target": "G250 antigen (MN antigen), complete protein, aa 1-459 (UniProt Q16790 38-459)",
  "experiment": "immunohistochemistry of G250-negative cells transiently transfected with the complete cDNA",
  "data": [
    {"binder": "B1", "values": [
      {"measurement": "binding result", "result": "binds"}
    ]}
  ]
}
